Among the data in patent US20260265360A1 (NEURACLE SCIENCE, published 2026) are binding result and Kd values, retold here.

Test [1] has as its target T1, FAM19A5 mutant M2 (human).
T1 chain: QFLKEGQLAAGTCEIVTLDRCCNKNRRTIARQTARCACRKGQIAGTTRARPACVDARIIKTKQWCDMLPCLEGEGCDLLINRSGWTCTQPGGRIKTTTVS
As to the kind of experiment: ELISA on phage-expressed FAM19A5 mutants M1-M8. A general note: An ELISA detects its analyte on a solid surface through an enzyme-linked reagent.

The target in test [2] is T2, FAM19A5 mutant M4 (human).
T2 chain: T1 chain with C21D, C22S, N23S, K24Q, N25P, A34V, R35K, A37S, R39F, K40P
As to the kind of experiment: ELISA on phage-expressed FAM19A5 mutants M1-M8.

Test [3] concerns the target T3, FAM19A5 mutant M3 (human).
T3 chain: T1 chain with C21D, C22S, N23S, K24Q, N25P, R27I, T28E, I29E, A30R, R31S
As to the kind of experiment: ELISA on phage-expressed FAM19A5 mutants M1-M8.

The target in test [4] is T4, FAM19A5 mutant M1 (human).
T4 chain: T1 chain with I15V, V16I, T17A, L18A, D19H, C21D, C22S, N23S, K24Q, N25P
In words: ELISA on phage-expressed FAM19A5 mutants M1-M8.

Test [5] has as its target T5, FAM19A5 mutant M8 (human).
T5 chain: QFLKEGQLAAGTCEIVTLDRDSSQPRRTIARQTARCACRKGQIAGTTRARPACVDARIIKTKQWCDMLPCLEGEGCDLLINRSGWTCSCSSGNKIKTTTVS
In words: ELISA on phage-expressed FAM19A5 mutants M1-M8.

Test [6] addresses T6, FAM19A5 mutant M6 (human).
T6 chain: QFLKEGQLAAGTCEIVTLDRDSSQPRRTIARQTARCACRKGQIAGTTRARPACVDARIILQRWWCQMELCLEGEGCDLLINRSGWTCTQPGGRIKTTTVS
As to the kind of experiment: ELISA on phage-expressed FAM19A5 mutants M1-M8.

Test [7] deals with T7, FAM19A5 mutant M7 (human).
T7 chain: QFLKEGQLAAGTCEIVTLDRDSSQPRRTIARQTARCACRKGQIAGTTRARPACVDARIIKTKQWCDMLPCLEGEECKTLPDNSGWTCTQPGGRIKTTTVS
In words: ELISA on phage-expressed FAM19A5 mutants M1-M8.

The target of test [8] is T8, Human FAM19A5 protein (Wild Type) (human, UniProt Q7Z5A7 44-132).
T8 construct: also called FAM19A5 antigen; TAFA5
As to the kind of experiment: value given in the HDX-MS sample preparation; method of its determination not stated.

Test [9] addresses T9, FAM19A5 epitope fragment F4, BSA-conjugated (human, conjugated to BSA).
T9 peptide: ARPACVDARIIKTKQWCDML
In words: ELISA, plate-coated BSA-conjugated FAM19A5 fragments F1-F6. As to the method:
(§1) Binding of the different anti-FAM19A5 antibodies to the BSA-conjugated peptide fragments F1-F6 was determined by Western blot analysis or ELISA assay. For the Western blot analysis, BSA-conjugated FAM19A5 fragments F1-F6 were separated by SDS polyacrylamide gel electrophoresis and transferred to a nitrocellulose membrane by the standard procedure. The membrane was incubated with the anti-FAM19A5 antibody (e.g., 1-65, […], 1-65-scFv-rabbit Fc-SSS), and the antigen-antibody complexes were detected with the appropriate secondary antibody conjugated with horse-radish peroxidase (anti-rabbit IgG (Fc specific)-HRP, 1:4000 dilution). For the ELISA assay, the following protocol was used. FAM19A5 fragment F1-F6 (diluted to 1 μg/mL in 50 mM carbonate buffer (Biosesang) or to 20 μg/mL for high concentration analysis) were used to coat the wells of 96-well immuno plates (Thermo Scientific) (100 μL/well) overnight at 4° C. and then subsequently washed twice in 1×PBS. The plates were then blocked with the blocking buffer (100 μL/well) for 1 hour at room temperature. During the 1-hour incubation, the relavant anti-FAM19A5 antibodies were diluted to 1 μg/mL (or 20 μg/mL for high concentration analysis) in the diluent buffer. Once the plates were washed (2× using 1×PBS), the diluted anti-FAM19A5 antibodies were added to the appropriate wells, and the plates were incubated at room temperature for 1 hour. The plates were subsequently washed for a total of five times using the washing buffer. Next, the ODP substrate (prepared by dissolving one ODP tablet (O-phenylenediamine Dihydrochloride, Thermo) into 9 mL of sterilized deionized water and 1 mL of 10× stable Peroxide Stable buffer (Theromo)) was added to each of the wells, and the color change reaction was allowed to occur for 10 minutes. This reaction was stopped by adding 100 μL of 2N H2SO4 (Daejung) to the wells. The absorption value of each of the wells was detected at 492 nm using a 96-well microplate reader (Molecular Device).
(§2) As shown in FIGS. 19 and 20A, the anti-FAM19A5 antibody 1-65 bound strongly to fragment F5 as measured by both Western Blot and ELISA assay, respectively.

In test [10] the target is T10, FAM19A5 epitope fragment F3, BSA-conjugated (human, conjugated to BSA).
T10 peptide: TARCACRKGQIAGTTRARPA
Described as above. As to the method: as §1, §2

In test [11] the target is T11, FAM19A5 epitope fragment F5, BSA-conjugated (human, conjugated to BSA).
T11 peptide: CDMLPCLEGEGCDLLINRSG
Described as above. As to the method:
as §1, §2

The target of test [12] is T12, FAM19A5 epitope fragment F2, BSA-conjugated (human, conjugated to BSA).
T12 peptide: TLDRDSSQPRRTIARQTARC
Described as above. As to the method: as §1, §2

Test [13] deals with T13, FAM19A5 epitope fragment F6, BSA-conjugated (human, conjugated to BSA).
T13 peptide: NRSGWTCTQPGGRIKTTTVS
The description is as above. The procedure: as §1, §2

The target in test [14] is T14, FAM19A5 epitope fragment F1, BSA-conjugated (human, also: conjugated to BSA).
T14 construct: which number belongs to which fragment is not spelled out
T14 peptide: QLAAGTCEIVTLDR
The test is described as above. As to the method:
as §1, §2

The target in test [15] is T12, FAM19A5 epitope fragment F2, …. In words: ELISA, plate-coated BSA-conjugated FAM19A5 fragments F1-F6 (data not shown). As to the method:
Binding of the different anti-FAM19A5 antibodies to the BSA-conjugated peptide fragments F1-F6 was determined by Western blot analysis or ELISA assay. For the Western blot analysis, BSA-conjugated FAM19A5 fragments F1-F6 were separated by SDS polyacrylamide gel electrophoresis and transferred to a nitrocellulose membrane by the standard procedure. The membrane was incubated with the anti-FAM19A5 antibody (e.g., 1-65, […], 1-65-scFv-rabbit Fc-SSS), and the antigen-antibody complexes were detected with the appropriate secondary antibody conjugated with horse-radish peroxidase (anti-rabbit IgG (Fc specific)-HRP, 1:4000 dilution). For the ELISA assay, the following protocol was used. FAM19A5 fragment F1-F6 (diluted to 1 μg/mL in 50 mM carbonate buffer (Biosesang) or to 20 μg/mL for high concentration analysis) were used to coat the wells of 96-well immuno plates (Thermo Scientific) (100 μL/well) overnight at 4° C. and then subsequently washed twice in 1×PBS. The plates were then blocked with the blocking buffer (100 μL/well) for 1 hour at room temperature. […] The absorption value of each of the wells was detected at 492 nm using a 96-well microplate reader (Molecular Device).
as §2

In test [16] the target is T15, F2-05-BSA (#5) (human, conjugated to BSA).
T15 construct: already contained in the entry; also called mutant F2 peptide fragment #5
T15 peptide: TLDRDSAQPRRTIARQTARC
In words: ELISA, plate-coated F2 mutant peptides (BSA-conjugated).

For test [17], the target named is T16, F2-02-BSA (#2) (human, conjugated to BSA).
T16 construct: already contained in the entry; also called mutant F2 peptide fragment #2
T16 peptide: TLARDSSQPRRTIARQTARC
The description is as above.

In test [18] the target is T17, F2-04-BSA (#4) (human, conjugated to BSA).
T17 construct: already contained in the entry; also called mutant F2 peptide fragment #4
T17 peptide: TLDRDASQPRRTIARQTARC
The description is as above.

In test [19] the target is T18, F2-12-BSA (#12) (human, conjugated to BSA).
T18 construct: already contained in the entry; also called mutant F2 peptide fragment #12
T18 peptide: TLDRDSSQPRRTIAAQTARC
The test is described as above.

For test [20], the target named is T19, F2-07-BSA (#7) (human, conjugated to BSA).
T19 construct: already contained in the entry; also called mutant F2 peptide fragment #7
T19 peptide: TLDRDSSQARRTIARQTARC
Described as above.

Test [21] deals with T20, F2-06-BSA (#6) (human, conjugated to BSA).
T20 construct: already contained in the entry; also called mutant F2 peptide fragment #6
T20 peptide: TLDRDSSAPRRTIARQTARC
The description is as above.

In test [22] the target is T21, F2-01-BSA (#1) (human, conjugated to BSA).
T21 construct: already contained in the entry; also called mutant F2 peptide fragment #1
T21 peptide: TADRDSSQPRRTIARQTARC
The description is as above.

For test [23], the target named is T22, F2-13-BSA (#13) (human, conjugated to BSA).
T22 construct: already contained in the entry; also called mutant F2 peptide fragment #13
T22 peptide: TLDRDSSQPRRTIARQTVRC
Described as above.

The target of test [24] is T23, F2-10-BSA (#10) (human, conjugated to BSA).
T23 construct: already contained in the entry; also called mutant F2 peptide fragment #10
T23 peptide: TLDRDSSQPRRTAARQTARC
The description is as above.

The target of test [25] is T24, F2-09-BSA (#9) (human, conjugated to BSA).
T24 construct: already contained in the entry; also called mutant F2 peptide fragment #9
T24 peptide: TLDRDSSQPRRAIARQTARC
Described as above.

Test [26] deals with T25, F2-08-BSA (#8) (human, conjugated to BSA).
T25 construct: already contained in the entry; also called mutant F2 peptide fragment #8
T25 peptide: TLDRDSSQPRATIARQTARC
The test is described as above.

Where a chain is given by its changes, count along the chain named. Ends that are not written are not given here.

The Kd is a measure of binding affinity in units of concentration. A low value points to a tighter complex.

B1: Anti-FAM19A5 antibody 2-13 (antibody, V domains shown)
VH: AVTLDESGGGLQTPGGALSLVCKASGFTFSSHGMFWVRQTPGKGLEYVAEITNDGSGTNYGSAVKGRATISRDNGQSTVRLQLNNLRAEDTGTYFCARSTYECPGGFSCWGDTGQIDAWGHGTEVIVSS
VL: ALTQPSSVSANPGETVKITCSGGSYSYGWFQQKSPGSALVTVIYWDDERPSDIPSRFSGALSGSTNTLTITGVQADDEAVYFCGTEDISGTAGVFGAGTTLTVL
notes: also called clone 2-13
For the molecule B1, the binding result in test [1] is “binds”; in [2] it was “no binding”; in [3], “binds”; in test [4], “binds”; in test [5] it was “no binding”; in [6], “binds”. Moreover, the binding result is on record as “binds” in test [7]; “no binding” in test [9]; “no binding” in test [10]; “no binding” in [11]; “no binding” in [12]; “no binding” in test [13]. Also, in [14], the binding result is “no binding”. This molecule showed a Kd in [8] of 1 nM.

B2: Anti-FAM19A5 antibody 1-28 (antibody, V domains shown)
VH: AVTLDESGGGLQTPGGALSLVCKASGFDFSDYGMGWVRQAPGKGLEWVAAIRSDGSNPSYGSAVKGRATISKDNGRSTVRLQLNNLRAEDTATYYCAKDGNGYCALDAYRSGGYSCGVYPGSIDAWGHGTEVIVSS
VL: ALTQPSSVSANLEGTVEITCSGSGYGYGWYQQKSPGSAPVTVIYQNDKRPSDIPSRFSGSKSGSTGTLTITGVQVEDEAVYYCGSEDSSTLAGIFGAGTTLTVL
Take B2: the binding result in test [1] is reported as “no binding”; in test [15], “binds”; in test [16], “binds”; in test [17] it was “binds”; in [18] it was “binds”; in [19], “binds”. Besides, the binding result in test [20], in test [21], in test [22], in test [23], in test [24] and in [25] was “binds” in each case. Besides, the binding result in test [26] was “binds”.
